Data reported in publication PMC10643893 (2022).

T1: pneumolysin (Streptococcus pneumoniae, UniProt P0C2J9 1-471)
T1 chain: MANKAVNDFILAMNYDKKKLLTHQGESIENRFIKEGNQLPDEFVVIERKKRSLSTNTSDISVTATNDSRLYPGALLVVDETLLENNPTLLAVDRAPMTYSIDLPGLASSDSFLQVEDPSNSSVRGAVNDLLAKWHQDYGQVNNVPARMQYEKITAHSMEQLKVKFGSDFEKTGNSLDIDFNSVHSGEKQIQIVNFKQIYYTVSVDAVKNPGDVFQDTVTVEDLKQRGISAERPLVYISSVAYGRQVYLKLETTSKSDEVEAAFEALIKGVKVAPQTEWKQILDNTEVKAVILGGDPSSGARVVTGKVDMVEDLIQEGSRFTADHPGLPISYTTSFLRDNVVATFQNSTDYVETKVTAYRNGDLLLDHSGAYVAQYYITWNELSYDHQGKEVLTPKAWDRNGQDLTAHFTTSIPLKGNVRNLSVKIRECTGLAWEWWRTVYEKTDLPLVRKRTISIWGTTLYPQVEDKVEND

B1: high-molecular-weight kininogen (natural protein)
chain: QESQSEEIDCNDKDLFKAVDAALKKYNSQNQSNNQFVLYRITEATKTVGSDTFYSFKYEIKEGDCPVQSGKTWQDCEYKDAAKAATGECTATVGKRSSTKFSVATQTCQITPAEGPVVTAQYDCLGCVHPISTQSPDLEPILRHGIQYFNNNTQHSSLFMLNEVKRAQRQVVAGLNFRITYSIVQTNCSKENFLFLTPDCKSLWNGDTGECTDNAYIDIQLRIASFSQNCDIYPGKDFVQPPTKICVGCPRDIPTNSPELEETLTHTITKLNAENNATFYFKIDNVKKARVQVVAGKKYFIDFVARETTCSKESNEELTESCETKKLGQSLDCNAEVYVVPWEKKIYPTVNCQPLGMISLMKRPPGFSPFRSSRIGEIKEETTVSPPHTSMAPAQDEERDSGKEQGHTRRHDWGHEKQRKHNLGHGHKHERDQGHGHQRGHGLGHGHEQQHGLGHGHKFKLDDDLEHQGGHVLDHGHKHKHGHGHGKHKNKGKKNGKHNGWKTEHLASSSEDSTTPSAQTQEKTEGPTPIPSLAKPGVTVTFSDFQDSDLIATMMPPISPAPIQSDDDWIPDIQIDPNGLSFNPISDFPDTTSPKCPGRPWKSVSEINPTTQMKESYYFDLTDGLS
B2: factor XII (zymogen) (natural protein)
chain: IPPWEAPKEHKYKAEEHTVVLTVTGEPCHFPFQYHRQLYHKCTHKGRPGPQPWCATTPNFDQDQRWGYCLEPKKVKDHCSKHSPCQKGGTCVNMPSGPHCLCPQHLTGNHCQKEKCFEPQLLRFFHKNEIWYRTEQAAVARCQCKGPDAHCQRLASQACRTNPCLHGGRCLEVEGHRLCHCPVGYTGAFCDVDTKASCYDGRGLSYRGLARTTLSGAPCQPWASEATYRNVTAEQARNWGLGGHAFCRNPDNDIRPWCFVLNRDRLSWEYCDLAQCQTPTQAAPPTPVSPRLHVPLMPAQPAPPKPQPTTRTPPQSQTPGALPAKREQPPSLTRNGPLSCGQRLRKSLSSMTRVVGGLVALRGAHPYIAALYWGHSFCAGSLIAPCWVLTAAHCLQDRPAPEDLTVVLGQERRNHSCEPCQTLAVRSYRLHEAFSPVSYQHDLALLRLQEDADGSCALLSPYVQPVCLPSGAARPSETTLCQVAGWGHQFEGAEEYASFLQEAQVPFLSLERCSAPDVHGSSILPGMLCAGFLEGGTDACQGDSGGPLVCEDQAAERRLTLQGIISWGSGCGDRNKPGVYTDVAYYLAWIREHTVS
B3: plasma kallikrein (zymogen) (natural protein)
chain: not shown

Molecular target: T1, pneumolysin
Assay: SPR
Binder B1 has a Kd of 12600 nM. B2 gave a Kd of 24.9 nM. B3 showed a Kd of 328 nM.

Molecular target: T1, pneumolysin
Assay: SPR
Remark: another data set of the same source
In the case of B1, the koff is reported as 0.00208 s⁻¹. B2 was tested, and the koff was 0.00198 s⁻¹. With B3 the koff was 0.00942 s⁻¹.

Molecular target: T1, pneumolysin
Assay: SPR
Remark: another data set of the same source
Work on B1 yielded a Ka of 573000 M⁻¹. B2 was tested, and the Ka was 4.41e+07 M⁻¹. Work on B3 yielded a Ka of 3.04e+06 M⁻¹.
